Columns and labels:
Conditions in all cases: protein: recombinant; tags: N-terminal His-SUMO; label: 5' FAM
ECT2-Δα0 = molecular target: T1, ECT2-Δα0 (Arabidopsis thaliana, UniProt Q9LJE5 1-667, del419-427); test: EMSA; close to full length, doublet kept; EMSA: 10 nM FAM-RNA; binding buffer 10 mM HEPES pH 8.0, 50 mM KCl, 1 mM EDTA, 0.05% Triton X-100, 5% glycerol, 10 µg/mL salmon DNA, 1 mM DTT, 40 U/mL RNasin; 20 min on ice; native 8% acrylamide TBE gel at 4°C
T1 sequence: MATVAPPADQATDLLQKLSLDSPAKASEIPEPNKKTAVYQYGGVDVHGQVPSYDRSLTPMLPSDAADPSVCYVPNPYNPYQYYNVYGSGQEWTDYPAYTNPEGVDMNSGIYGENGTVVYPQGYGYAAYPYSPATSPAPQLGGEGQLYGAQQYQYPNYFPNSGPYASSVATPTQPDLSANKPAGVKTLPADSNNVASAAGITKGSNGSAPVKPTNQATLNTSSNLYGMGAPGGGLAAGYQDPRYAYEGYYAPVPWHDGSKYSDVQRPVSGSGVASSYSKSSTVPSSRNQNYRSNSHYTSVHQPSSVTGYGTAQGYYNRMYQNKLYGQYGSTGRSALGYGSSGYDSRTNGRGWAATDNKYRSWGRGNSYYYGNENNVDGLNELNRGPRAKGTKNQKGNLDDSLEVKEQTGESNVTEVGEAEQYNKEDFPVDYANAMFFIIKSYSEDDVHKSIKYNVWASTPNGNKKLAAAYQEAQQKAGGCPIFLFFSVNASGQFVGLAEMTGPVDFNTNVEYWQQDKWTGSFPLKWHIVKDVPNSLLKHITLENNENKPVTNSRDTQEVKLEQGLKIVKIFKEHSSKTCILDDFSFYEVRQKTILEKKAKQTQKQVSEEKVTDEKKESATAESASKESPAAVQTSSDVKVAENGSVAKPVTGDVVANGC

ECT2-Fl mut (YTH mut) = molecular target: T2, ECT2-Fl mut (YTH mut) (Arabidopsis thaliana, UniProt Q9LJE5 1-667, W464A;W521A;W526A); test: EMSA; EMSA: 10 nM FAM-RNA; binding buffer 10 mM HEPES pH 8.0, 50 mM KCl, 1 mM EDTA, 0.05% Triton X-100, 5% glycerol, 10 µg/mL salmon DNA, 1 mM DTT, 40 U/mL RNasin; 20 min on ice; native 8% acrylamide TBE gel at 4°C
T2 sequence: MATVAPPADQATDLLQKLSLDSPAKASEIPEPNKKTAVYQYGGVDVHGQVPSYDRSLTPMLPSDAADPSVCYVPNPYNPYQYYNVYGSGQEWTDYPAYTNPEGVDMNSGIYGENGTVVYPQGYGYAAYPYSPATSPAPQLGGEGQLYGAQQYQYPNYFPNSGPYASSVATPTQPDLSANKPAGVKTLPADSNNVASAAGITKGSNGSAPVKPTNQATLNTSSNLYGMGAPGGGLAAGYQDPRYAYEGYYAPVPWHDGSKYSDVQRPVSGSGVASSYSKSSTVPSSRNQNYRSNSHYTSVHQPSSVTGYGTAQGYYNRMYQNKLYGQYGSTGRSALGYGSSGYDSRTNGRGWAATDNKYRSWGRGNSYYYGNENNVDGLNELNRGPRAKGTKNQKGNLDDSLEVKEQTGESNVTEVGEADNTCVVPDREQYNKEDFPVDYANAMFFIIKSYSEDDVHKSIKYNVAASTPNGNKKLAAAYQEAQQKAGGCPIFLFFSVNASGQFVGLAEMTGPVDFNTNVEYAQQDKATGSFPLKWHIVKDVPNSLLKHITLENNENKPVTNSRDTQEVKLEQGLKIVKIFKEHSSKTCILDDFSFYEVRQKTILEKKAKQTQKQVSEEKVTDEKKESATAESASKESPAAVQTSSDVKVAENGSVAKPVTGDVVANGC

ECT2-108 YTH mut = molecular target: T3, ECT2-108 YTH mut (Arabidopsis thaliana, UniProt Q9LJE5 108-667, W464A;W521A;W526A); test: EMSA; up to 500 nM; EMSA: 10 nM FAM-RNA; binding buffer 10 mM HEPES pH 8.0, 50 mM KCl, 1 mM EDTA, 0.05% Triton X-100, 5% glycerol, 10 µg/mL salmon DNA, 1 mM DTT, 40 U/mL RNasin; 20 min on ice; native 8% acrylamide TBE gel at 4°C
T3 sequence: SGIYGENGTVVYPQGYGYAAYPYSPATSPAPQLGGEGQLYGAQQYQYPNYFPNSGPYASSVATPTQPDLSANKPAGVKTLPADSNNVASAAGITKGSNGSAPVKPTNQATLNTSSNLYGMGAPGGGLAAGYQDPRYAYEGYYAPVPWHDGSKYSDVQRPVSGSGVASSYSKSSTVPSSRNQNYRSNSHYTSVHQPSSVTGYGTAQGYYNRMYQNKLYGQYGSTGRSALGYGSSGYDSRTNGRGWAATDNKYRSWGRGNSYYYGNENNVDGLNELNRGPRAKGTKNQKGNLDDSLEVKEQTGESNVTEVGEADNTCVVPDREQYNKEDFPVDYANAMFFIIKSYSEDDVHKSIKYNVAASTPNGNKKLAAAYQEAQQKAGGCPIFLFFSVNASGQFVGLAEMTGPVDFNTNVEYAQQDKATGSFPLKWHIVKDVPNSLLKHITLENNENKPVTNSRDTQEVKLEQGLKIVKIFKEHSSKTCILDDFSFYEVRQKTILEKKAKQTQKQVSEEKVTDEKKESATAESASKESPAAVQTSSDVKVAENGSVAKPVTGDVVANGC

ECT2-303 YTH mut = molecular target: T4, ECT2-303 YTH mut (Arabidopsis thaliana, UniProt Q9LJE5 303-667, W464A;W521A;W526A); test: as above
T4 sequence: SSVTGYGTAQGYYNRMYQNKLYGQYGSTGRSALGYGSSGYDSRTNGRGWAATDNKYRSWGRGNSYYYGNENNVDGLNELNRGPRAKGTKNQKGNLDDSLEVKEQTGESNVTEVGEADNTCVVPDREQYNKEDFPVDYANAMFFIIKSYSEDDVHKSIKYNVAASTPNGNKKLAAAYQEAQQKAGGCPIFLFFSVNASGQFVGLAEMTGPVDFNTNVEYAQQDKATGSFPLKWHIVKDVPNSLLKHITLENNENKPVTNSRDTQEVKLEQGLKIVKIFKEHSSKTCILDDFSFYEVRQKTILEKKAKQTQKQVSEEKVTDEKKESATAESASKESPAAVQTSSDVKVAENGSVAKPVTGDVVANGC

AUGGGCCGUUCAUCUGCUAAAAGGACUGCUUUUGGGGCUUGU (ssRNA, m6A at position 25; thiol-protected 3' bases (*G*U)) [Probe I m6A]
binding result (ECT2-Δα0): binds
binding result (ECT2-Fl mut (YTH mut)): no binding
binding result (ECT2-108 YTH mut): no binding
binding result (ECT2-303 YTH mut): no binding
